{
  "source": "IntAct's records for PubMed 21311754",
  "key": {"apc_human APC [1]": {"biological_target": "apc_human APC (UniProt P25054)", "sequence (P25054 whole entry)": "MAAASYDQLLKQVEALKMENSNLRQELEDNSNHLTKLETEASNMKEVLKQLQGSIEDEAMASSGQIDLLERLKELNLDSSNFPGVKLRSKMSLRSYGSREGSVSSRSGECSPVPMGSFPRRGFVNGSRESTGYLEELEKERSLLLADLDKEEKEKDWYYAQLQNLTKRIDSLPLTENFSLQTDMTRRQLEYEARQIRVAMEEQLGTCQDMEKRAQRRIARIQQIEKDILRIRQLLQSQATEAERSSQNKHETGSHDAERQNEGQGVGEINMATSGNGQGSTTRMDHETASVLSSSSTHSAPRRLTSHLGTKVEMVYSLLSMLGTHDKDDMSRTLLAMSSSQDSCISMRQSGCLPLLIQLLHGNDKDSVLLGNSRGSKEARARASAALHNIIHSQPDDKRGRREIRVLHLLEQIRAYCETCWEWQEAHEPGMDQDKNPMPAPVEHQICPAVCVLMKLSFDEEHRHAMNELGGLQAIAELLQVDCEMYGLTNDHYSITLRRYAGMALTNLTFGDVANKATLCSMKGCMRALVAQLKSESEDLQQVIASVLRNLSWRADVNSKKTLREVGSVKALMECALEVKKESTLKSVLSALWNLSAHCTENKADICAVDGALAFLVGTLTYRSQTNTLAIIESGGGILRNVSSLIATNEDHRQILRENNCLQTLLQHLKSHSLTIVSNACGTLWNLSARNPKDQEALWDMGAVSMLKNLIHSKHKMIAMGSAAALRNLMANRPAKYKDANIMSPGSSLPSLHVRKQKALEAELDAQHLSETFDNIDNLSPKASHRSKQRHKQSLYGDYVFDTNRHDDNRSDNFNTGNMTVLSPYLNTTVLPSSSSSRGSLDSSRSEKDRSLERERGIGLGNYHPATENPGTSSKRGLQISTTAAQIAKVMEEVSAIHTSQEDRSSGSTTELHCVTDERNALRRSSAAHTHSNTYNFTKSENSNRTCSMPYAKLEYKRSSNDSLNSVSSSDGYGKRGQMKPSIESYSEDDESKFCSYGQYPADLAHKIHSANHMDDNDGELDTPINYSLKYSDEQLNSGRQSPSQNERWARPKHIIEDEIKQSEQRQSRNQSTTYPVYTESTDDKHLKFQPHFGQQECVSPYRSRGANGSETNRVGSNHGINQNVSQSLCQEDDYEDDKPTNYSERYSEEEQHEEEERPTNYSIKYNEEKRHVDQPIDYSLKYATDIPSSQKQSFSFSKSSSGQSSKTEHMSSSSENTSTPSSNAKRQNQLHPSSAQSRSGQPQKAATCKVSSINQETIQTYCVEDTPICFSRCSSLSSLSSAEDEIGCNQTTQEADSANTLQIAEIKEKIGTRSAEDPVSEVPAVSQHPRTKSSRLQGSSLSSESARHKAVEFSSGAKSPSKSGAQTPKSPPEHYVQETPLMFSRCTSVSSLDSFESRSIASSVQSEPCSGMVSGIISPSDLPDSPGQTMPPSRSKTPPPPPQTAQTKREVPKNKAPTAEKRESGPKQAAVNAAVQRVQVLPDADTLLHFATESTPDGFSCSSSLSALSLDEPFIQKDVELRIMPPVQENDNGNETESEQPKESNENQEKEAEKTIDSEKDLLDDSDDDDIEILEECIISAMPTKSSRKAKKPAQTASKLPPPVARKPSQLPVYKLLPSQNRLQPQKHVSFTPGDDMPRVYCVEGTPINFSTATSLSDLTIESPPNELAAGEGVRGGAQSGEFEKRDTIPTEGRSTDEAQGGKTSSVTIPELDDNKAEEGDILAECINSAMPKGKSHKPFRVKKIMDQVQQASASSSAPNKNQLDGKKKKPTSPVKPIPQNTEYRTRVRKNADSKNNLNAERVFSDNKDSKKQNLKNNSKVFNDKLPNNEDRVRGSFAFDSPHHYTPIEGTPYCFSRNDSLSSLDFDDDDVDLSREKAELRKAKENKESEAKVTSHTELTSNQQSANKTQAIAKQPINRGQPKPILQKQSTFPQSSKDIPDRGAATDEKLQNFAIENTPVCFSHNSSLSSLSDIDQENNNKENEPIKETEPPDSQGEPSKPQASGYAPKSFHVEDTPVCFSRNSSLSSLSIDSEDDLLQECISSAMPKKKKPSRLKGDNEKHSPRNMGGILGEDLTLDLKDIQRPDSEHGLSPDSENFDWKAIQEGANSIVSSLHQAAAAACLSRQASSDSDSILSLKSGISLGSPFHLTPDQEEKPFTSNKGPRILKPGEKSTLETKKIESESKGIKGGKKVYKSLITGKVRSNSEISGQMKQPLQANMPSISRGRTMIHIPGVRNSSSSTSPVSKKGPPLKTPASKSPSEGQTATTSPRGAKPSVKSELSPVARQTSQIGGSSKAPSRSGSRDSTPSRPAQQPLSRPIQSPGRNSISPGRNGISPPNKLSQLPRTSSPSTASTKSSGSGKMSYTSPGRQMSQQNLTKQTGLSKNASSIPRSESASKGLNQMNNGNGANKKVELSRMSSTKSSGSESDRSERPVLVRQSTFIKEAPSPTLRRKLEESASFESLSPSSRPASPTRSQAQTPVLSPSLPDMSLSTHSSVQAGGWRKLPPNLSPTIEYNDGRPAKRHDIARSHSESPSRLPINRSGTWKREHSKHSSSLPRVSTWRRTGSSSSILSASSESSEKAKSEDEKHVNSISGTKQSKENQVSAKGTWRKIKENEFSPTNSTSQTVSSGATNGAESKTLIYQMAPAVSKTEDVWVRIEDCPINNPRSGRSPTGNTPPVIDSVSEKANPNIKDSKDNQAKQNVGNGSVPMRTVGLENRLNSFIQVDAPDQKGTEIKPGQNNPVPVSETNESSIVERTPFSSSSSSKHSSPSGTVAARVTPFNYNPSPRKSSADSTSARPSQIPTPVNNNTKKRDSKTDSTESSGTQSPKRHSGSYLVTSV"}, "apc_human APC [2]": {"biological_target": "apc_human APC (UniProt P25054)", "remark": "listed apart in the source"}},
  "data": [
    {"substance": "Cell division control protein 42 homolog (Homo sapiens), P60953 T17N", "values": [
      {"measurement": "effect of a mutation on the interaction", "setting": "apc_human APC [1]", "result": "disrupting interaction strength"},
      {"measurement": "effect of a mutation on the interaction", "setting": "apc_human APC [2]", "result": "decreasing interaction strength"}
    ]}
  ]
}
